From patent US20050025760A1 (KEIO UNIVERSITY, published 2005) come the findings set out here.

Where a chain is given by its changes, count along the chain named.

Assay in all cases: immunoprecipitation of point-mutated molecules (FIG. 5)
In one test the target is T1, Dsg1-M1-2 (human, UniProt Q02413 50-545, H25T; C28Y; A29Q; N31T; Q33K; V34I).
T1 construct: extracellular domain; Dsg1-specific residues changed to the Dsg3-specific ones; also called hDsg1-M1-2
T1 sequence (looked up): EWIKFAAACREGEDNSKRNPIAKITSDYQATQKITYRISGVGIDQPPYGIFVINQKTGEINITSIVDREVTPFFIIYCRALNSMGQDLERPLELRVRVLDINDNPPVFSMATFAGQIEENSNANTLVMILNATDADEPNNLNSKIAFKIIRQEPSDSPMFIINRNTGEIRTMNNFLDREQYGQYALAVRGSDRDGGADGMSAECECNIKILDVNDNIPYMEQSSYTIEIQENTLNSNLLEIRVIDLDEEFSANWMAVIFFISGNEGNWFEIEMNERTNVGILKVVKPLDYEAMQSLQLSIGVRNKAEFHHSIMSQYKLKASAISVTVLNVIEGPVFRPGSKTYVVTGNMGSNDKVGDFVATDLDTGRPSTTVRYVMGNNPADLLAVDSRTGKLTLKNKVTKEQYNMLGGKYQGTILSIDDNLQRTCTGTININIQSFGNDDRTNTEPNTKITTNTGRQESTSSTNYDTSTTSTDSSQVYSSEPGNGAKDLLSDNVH

The next test has as its target T2, Dsg3-M4 (human, UniProt P32926 50-615, E70V; S73F).
T2 construct: extracellular domain; also called point-mutated human Dsg3 molecule M4; not shown: His tag of vector pEVmod-His
T2 sequence (looked up): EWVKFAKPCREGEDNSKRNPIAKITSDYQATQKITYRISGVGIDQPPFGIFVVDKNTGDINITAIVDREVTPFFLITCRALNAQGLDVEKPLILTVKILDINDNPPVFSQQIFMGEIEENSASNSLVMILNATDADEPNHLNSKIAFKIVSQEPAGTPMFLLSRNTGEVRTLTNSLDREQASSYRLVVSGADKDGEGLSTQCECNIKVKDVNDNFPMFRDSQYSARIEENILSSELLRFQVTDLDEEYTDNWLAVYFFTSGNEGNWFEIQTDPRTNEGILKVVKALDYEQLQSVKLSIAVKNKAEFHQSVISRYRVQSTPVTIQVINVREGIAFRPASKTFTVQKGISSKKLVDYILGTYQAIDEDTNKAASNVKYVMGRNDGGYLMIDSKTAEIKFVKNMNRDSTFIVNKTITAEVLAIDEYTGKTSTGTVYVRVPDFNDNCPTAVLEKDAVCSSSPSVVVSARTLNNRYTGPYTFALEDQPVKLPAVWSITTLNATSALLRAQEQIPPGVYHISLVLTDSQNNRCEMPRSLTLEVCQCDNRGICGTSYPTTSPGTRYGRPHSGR

Another test has as its target T3, Dsg3-M2 (human, UniProt P32926 50-615, T31N; K33Q; I34V).
T3 construct: extracellular domain; also called point-mutated human Dsg3 molecule M2; not shown: His tag of vector pEVmod-His
T3 sequence (looked up): T2 sequence (looked up) with T31N, K33Q, I34V, V70E, F73S

A further test deals with T4, Dsg1-M7 (human, UniProt Q02413 50-545, I3V; A7K; A8P).
T4 construct: extracellular domain; also called hDsg1-M7
T4 sequence (looked up): T1 sequence (looked up) with I3V, A7K, A8P, T25H, Y28C, Q29A, T31N, K33Q, I34V

B1: anti-Dsg3 monoclonal antibody AK23 (antibody, mouse IgG1, V domains shown)
VH: QVQLQQSGTELVKPGASVKLSCKSSGYTFTSYWINWVKQRPGQGLEWIGNINPSNGGINYNEKFKSKATLTVDKSSSTAYMQLKSLTSEDSAVYYCARGGYDGYPWGQGTTVTVS
VL: DIQMTQSPKFLLVSAGDRVTITCKASQSVSYDVAWYQQKPGQSPKLLISYASNRYTGVPDRFTGSGYGSDFTFTISTVQTEDLAVYFCQQDYSSPWTFGGGTKLELKR
notes: Mouse IgG1 kappa hybridoma antibody
In the case of B1, the binding result with Dsg1-M1-2 is on record as “no binding”; with Dsg3-M4, “binds”; in the test with Dsg3-M2, “binds”; with Dsg1-M7 it was “no binding”.
